Reference: patent US20100048671

Target: T7-tagged tyrosine kinase Etk (UniProt P51813)
Sequence (P51813 whole entry): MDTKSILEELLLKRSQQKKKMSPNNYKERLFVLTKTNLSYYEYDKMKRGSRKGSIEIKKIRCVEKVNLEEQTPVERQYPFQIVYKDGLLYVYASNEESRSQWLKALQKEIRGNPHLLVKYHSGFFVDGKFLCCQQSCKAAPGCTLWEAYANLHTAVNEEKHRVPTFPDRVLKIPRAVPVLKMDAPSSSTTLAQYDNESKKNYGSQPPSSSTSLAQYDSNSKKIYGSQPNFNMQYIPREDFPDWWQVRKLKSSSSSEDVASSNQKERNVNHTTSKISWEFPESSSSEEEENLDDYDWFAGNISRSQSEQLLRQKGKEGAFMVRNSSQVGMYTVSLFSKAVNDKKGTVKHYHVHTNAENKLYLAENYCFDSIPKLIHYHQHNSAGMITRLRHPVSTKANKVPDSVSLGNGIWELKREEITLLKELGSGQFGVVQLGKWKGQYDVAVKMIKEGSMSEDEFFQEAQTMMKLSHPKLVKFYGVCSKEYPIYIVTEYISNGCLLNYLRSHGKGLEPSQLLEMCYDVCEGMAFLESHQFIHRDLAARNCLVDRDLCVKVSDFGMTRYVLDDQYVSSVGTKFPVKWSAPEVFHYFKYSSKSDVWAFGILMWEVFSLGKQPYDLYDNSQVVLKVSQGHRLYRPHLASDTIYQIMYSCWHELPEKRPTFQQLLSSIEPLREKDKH

Chain of Flag-tagged human 44 kD Pim-1 (Pim-1L) (chain, as listed by the source): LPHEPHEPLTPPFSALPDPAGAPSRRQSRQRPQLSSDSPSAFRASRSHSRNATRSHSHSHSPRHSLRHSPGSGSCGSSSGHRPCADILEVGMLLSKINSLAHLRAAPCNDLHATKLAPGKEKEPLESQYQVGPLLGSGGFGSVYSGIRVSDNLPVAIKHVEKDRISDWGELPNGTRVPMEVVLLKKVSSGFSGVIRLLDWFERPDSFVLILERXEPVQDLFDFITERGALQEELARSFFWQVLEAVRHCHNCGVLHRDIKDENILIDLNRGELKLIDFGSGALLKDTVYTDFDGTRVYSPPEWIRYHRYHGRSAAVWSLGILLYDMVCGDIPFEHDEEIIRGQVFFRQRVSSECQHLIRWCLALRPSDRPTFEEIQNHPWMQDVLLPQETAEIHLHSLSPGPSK
Chain of Flag-tagged Pim-1LΔP (Pim-1L with the first 15 amino acids deleted) (chain, as listed by the source mutant): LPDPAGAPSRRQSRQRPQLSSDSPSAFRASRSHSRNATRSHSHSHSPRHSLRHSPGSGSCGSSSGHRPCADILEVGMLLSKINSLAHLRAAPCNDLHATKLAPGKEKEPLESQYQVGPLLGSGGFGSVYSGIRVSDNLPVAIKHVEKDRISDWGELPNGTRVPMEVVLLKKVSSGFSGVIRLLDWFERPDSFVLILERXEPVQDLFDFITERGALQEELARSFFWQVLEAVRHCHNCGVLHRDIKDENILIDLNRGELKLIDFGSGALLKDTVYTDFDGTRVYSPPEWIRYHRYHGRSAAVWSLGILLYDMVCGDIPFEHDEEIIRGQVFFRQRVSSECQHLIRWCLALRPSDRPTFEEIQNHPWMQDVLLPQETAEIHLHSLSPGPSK

Substance | in vitro kinase assay of Etk (tyrosine phosphorylation of the substrate Gab1) | tyrosine phosphorylation of Etk (IP anti-Etk, blot anti-phosphotyrosine)
Flag-tagged human 44 kD Pim-1 (Pim-1L) | Co-expression of Etk with Pim-1L enhanced the kinase activity of Etk | unexpected robust increase of tyrosine phosphorylation of Etk
Flag-tagged Pim-1LΔP (Pim-1L with the first 15 amino acids deleted) | Deletion of the proline-rich PXXP motifs of Pim-1L (Pim-1LΔP) dramatically diminished its effects on the Etk kinase activity | 
